Changes are numbered by the printed parent chain.
T1: peanut (Arachis hypogaea) allergen Ara h 6 (Arachis hypogaea) (UniProt Q647G9)
T1 sequence: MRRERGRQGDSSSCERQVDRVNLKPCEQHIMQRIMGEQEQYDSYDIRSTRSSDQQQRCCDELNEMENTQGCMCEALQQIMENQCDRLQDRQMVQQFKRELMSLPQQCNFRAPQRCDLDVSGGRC

B1: human IgE mAb 21C10 (antibody, from a related filing, V domains shown)
VH: EVQLVESGGGLVKPGGSLRLSCAASGFILSRSSMSWVRQAPGKGLEWVSYISSTSSHIYYADSLKGRFTISRDNTENSVYLQMSSLRAEDTGVYYCARKTNGAWFLDLWGRGTLVTVSS
VL: QSVLTQPPSVSGAPGQRVTISCTGSSSNIGAGSDVHWYQQFPGSAPHVLIYGNNQRPSGVPDRFSASKSGTSASLAITGLQADDEADYYCQSYDYDLSGSWVFGGGTKLTVL
B2: human IgE mAb 8F3 (antibody, from a related filing, V domains shown)
VH: QLQLQESGPGLVKPSETLSLTCTVSDASIDTPSYFWSWIRQPPGKGLEWIGSIYYTGNKYSNPSLKSRVTMSVDTPKRQFSLRLSSVTAADTAVYYCARYVDYVWLRAFDIWGQGTRVTVSS
VL: EIVLTQSPATLSLSPGERATLSCRASPSAGRFLAWYQQRPGQAPRLLIYDASKRATDTPARFSGSGSGTDFNLTIASLEPEDFAVYYCQHRSNWPLTFGGGTKVEIK
B3: human IgE mAb 1A8 (antibody, from a related filing, V domains shown)
VH: QLQLQESGPGLVKPSETLSLTCSVSDDSISTPSYFWTWIRQPPGKGLEWIASIYYTGTTYYNPSLKSRVTLSVDTPKRQFFLRLSSVTAADTAVYYCARYLDYVWLRAFDVWGQGAMVTVSS
VL: B2 VL with A29V, R39K, K53Q, T58I, G64A, N72T, A76D, V85I, L96V, K103R
B4: human IgE mAb 20M10 (antibody, from a related filing, V domains shown)
VH: EVQLVESGGGLVKPGGSLRLSCTVSGFTFNMHSMNWVRQAPGKGLEWVSFISSTSTYIYYPDSVKGRFTVSRDNSKNSLYLQMTSLRAEDTAVYYCVRRGRGGAARALDNWGQGTLVTVSS
VL: SYVLPQTPSLSVAPGQTATISCGGNNTGSKSVHWYQQKPGQAPLLVVYDNSDRPSGIPERFSGSNSGNTATLTLSRVEAEDEADYYCQVWDSTIDHVIFGGGTKLTVL
B5: human IgE mAb 15C2 (antibody, from a related filing, V domains shown)
VH: QVQLVQSESELKKPGASVKISCKASGYDLTKYAMNWVRQAPGQGLEWMGWINTNTAKPTYAQGFTGRFVFSLDTSVRTIYLEISNLKAEDTAIYYCSRDGSGASWGQGTLVTVSS
VL: DIQMTQSPSTLSASVGDRVTITCRASQNIGRWLAWHQQKPGKAPKVLITKASNLESGVPSRFTGSGSGTDFTLTITSLQPDDFATYYCQQYTTYSGTFGQGTRVEIK
B6: human IgE mAb 26A5 (antibody, from a related filing, V domains shown)
VH: QVQLVQSGSELRKPGASVKVSCKASGYTFTKYGMNWVRQAPGQGLEWMGWINTNTAKPTYAQDFTGRFVFSLDTSVNTAYLEISGLKAEDTAVYYCATDGSEGSWGQGTLVTVSS
VL: B5 VL with N28S, R31T, K42T, T49Y, E55K, T63S, T76S, F83V, T92N

What follows are binders tested against T1, peanut (Arachis hypogaea) allergen Ara h 6 (Arachis hypogaea) (assay: EC50 of IgE mAb on allergen, Table 1; method not stated).

| Binder | EC50 [ng/mL] |
| --- | --- |
| B1 | 3.2 |
| B2 | 3.8 |
| B3 | 5 |
| B4 | 5.3 |
| B5 | 31.5 |
| B6 | 10.1 |

From patent US20240390486A1
